Four substances from paper PMC12049944 can be followed below.

Assay in all cases: cross-linking; intermolecular disulfides between Cys residues introduced in helices 4 and 6 of APOA1 in rHDL; SDS-PAGE under reducing and oxidising conditions
In assay [1] the target is APOA1 double Cys mutant K107C/H155C in rHDL (human).
Assay [2] concerns the target APOA1 double Cys mutant M112C/M148C in rHDL (human).
Assay [3] has as its target APOA1 double Cys mutant Y100C/M162C in rHDL (human).
Assay [4] addresses APOA1 double Cys mutant Y115C/E147C in rHDL (human).

As to “APOA1 double Cys mutant K107C/H155C in rHDL”, the percent of APOA1 remaining monomeric (oxidising conditions) in assay [1] came to 10%.

Substance “APOA1 double Cys mutant M112C/M148C in rHDL” displayed a percent dimer (oxidising conditions) in assay [2] of 50%.

With “APOA1 double Cys mutant Y100C/M162C in rHDL (natural protein)”, the percent of APOA1 remaining monomeric (oxidising conditions) in assay [3] came to 10%.

Substance “APOA1 double Cys mutant Y115C/E147C in rHDL” had a percent of APOA1 remaining monomeric (oxidising conditions) in assay [4] of 10%.
